Source: US20200057047

B1: IKKβ (immunoprecipitated from HEK293T transfectants) (enzyme, UniProt O14920 1-756, looked up, species assumed)
Inhibitor of nuclear factor kappa-B kinase subunit beta: MSWSPSLTTQTCGAWEMKERLGTGGFGNVIRWHNQETGEQIAIKQCRQELSPRNRERWCLEIQIMRRLTHPNVVAARDVPEGMQNLAPNDLPLLAMEYCQGGDLRKYLNQFENCCGLREGAILTLLSDIASALRYLHENRIIHRDLKPENIVLQQGEQRLIHKIIDLGYAKELDQGSLCTSFVGTLQYLAPELLEQQKYTVTVDYWSFGTLAFECITGFRPFLPNWQPVQWHSKVRQKSEVDIVVSEDLNGTVKFSSSLPYPNNLNSVLAERLEKWLQLMLMWHPRQRGTDPTYGPNGCFKALDDILNLKLVHILNMVTGTIHTYPVTEDESLQSLKARIQQDTGIPEEDQELLQEAGLALIPDKPATQCISDGKLNEGHTLDMDLVFLFDNSKITYETQISPRPQPESVSCILQEPKRNLAFFQLRKVWGQVWHSIQTLKEDCNRLQQGQRAAMMNLLRNNSCLSKMKNSMASMSQQLKAKLDFFKTSIQIDLEKYSEQTEFGITSDKLLLAWREMEQAVELCGRENEVKLLVERMMALQTDIVDLQRSPMGRKQGGTLDDLEEQARELYRRLREKPRDQRTEGDSQEMVRLLLQAIQSFEKKVRVIYTQLSKTVVCKQKALELLPKVEEVVSLMNEDEKTVVRLQEKRQKELWNLLKIACSKVRGPVSGSPDSMNASRLSQPGQLMSQPSTASNSLPEPAKKSEELVAEAHNLCTLLENAIQDTVREQDQSFTALDWSWLQTEEEEHSCLEQAS
B2: Flag-tagged GLK (protein)
chain: DYKDDDDKMNPGFDLSRRNPQEDFELIQRIGSGTYGDVYKARNVNTGELAAIKVIKLEPGEDFAVVQQEIIMMKDCKHPNIVAYFGSYLRRDKLWICMEFCGGGSLQDIYHVTGPLSELQIAYVSRETLQGLYYLHSKGKMHRDIKGANILLTDNGHVKLADFGVSAQITATIAKRKSFIGTPYWMAPEVAAVERKGGYNQLCDLWAVGITAIELAELQPPMFDLHPMRALFLMTKSNFQPPKLKDKMKWSNSFHHFVKMALTKNPKKRPTAEKLLQHPFVTQHLTRSLAIELLDKVNNPDHSTYHDFDDDDPEPLVAVPHRIHSTSRNVREEKTRSEITFGQVKFDPPLRKETEPHHELPDSDGFLDSSEEIYYTARSNLDLQLEYGQGHQGGYFLGANKSLLKSVEEELHQRGHVAHLEDDEGDDDESKHSTLKAKIPPPLPPKPKSIFIPQEMHSTEDENQGTIKRCPMSGSPAKPSQVPPRPPPPRLPPHKPVALGNGMSSFQLNGERDGSLCQQQNEHRGTNLSRKEKKDVPKPISNGLPPTPKVHMGACFSKVFNGCPLKIHCASSWINPDTRDQYLIFGAEEGIYTLNLNELHETSMEQLFPRRCTWLYVMNNCLLSISGKASQLYSHNLPGLFDYARQMQKLPVAIPAHKLPDRILPRKFSVSAKIPETKWCQKCCVVRNPYTGHKYLCGALQTSIVLLEWVEPMQKFMLIKHIDFPIPCPLRMFEMLVVPEQEYPLVCVGVSRGRDFNQVVRFETVNPNSTSSWFTESDTPQTNVTHVTQLERDTILVCLDCCIKIVNLQGRLKSSRKLSSELTFDFQIESIVCLQDSVLAFWKHGMQGRSFRSNEVTQEISDSTRIFRLLGSDRVVVLESRPTDNPTANSNLYILAGHENSY

Tests used:
[1] = tested on: Flag-tagged RORγt (wild type)
[2] = target: Myc-tagged IQGAP1 (wild type)
Myc-tagged IQGAP1 (wild type), sequence (chain, as listed by the source): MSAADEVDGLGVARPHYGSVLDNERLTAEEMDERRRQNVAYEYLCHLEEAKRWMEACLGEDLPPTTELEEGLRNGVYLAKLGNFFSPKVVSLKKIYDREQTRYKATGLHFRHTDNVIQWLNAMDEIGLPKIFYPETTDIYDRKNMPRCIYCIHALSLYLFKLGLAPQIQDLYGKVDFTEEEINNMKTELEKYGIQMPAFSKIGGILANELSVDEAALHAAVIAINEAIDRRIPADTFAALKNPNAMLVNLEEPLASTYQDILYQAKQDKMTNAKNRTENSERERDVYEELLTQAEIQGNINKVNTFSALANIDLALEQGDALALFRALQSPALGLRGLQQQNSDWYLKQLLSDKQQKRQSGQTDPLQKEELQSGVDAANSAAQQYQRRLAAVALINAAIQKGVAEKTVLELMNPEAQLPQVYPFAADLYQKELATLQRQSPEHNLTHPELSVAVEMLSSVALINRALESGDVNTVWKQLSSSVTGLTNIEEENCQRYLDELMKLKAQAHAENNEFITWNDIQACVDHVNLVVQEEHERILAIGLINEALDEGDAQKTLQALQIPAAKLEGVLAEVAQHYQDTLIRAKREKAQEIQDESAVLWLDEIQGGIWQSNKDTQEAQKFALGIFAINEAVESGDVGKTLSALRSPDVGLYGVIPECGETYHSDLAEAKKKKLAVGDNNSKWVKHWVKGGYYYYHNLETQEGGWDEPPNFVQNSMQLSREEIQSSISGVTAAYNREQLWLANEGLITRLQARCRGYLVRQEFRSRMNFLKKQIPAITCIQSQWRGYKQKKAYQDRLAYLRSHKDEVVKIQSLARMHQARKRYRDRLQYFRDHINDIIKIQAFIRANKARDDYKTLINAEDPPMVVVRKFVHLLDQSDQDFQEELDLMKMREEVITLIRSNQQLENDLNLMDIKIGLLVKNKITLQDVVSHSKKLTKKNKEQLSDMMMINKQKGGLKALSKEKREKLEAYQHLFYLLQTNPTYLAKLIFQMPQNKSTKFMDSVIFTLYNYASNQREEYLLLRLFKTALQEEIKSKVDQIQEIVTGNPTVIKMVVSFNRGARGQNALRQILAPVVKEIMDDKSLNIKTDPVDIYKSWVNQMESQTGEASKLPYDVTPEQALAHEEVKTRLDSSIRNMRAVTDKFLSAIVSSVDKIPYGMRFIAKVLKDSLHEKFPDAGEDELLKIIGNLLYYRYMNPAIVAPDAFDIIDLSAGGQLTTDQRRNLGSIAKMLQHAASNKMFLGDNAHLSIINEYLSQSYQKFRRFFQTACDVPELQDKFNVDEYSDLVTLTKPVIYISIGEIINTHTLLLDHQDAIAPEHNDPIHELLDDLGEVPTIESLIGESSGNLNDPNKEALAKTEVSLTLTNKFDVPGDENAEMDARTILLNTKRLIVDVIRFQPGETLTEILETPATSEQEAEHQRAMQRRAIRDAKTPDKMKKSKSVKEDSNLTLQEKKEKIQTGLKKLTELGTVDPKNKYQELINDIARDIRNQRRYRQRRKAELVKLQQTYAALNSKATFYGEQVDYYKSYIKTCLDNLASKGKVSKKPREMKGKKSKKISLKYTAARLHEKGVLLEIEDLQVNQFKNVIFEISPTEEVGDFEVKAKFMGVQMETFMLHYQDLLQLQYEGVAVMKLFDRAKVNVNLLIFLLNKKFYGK

Flag-tagged RORγt (wild type), sequence (chain, as listed by the source): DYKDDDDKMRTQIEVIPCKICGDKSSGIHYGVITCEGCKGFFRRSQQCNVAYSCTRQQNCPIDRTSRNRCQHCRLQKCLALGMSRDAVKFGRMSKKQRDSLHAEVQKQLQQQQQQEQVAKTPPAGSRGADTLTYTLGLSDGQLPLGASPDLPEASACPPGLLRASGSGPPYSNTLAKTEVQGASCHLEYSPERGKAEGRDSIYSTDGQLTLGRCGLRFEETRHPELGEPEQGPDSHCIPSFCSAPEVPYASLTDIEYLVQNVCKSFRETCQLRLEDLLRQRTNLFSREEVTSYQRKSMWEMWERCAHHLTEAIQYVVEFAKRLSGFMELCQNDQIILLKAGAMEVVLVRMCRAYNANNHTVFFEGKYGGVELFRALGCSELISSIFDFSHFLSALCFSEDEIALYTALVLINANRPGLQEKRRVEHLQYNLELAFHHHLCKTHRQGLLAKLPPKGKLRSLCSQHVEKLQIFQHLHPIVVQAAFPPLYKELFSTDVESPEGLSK

Protein	in vitro kinase assay: RORγt phosphorylation [1]	in vitro kinase assay: IQGAP1 phosphorylation [2]
B1	RORγt phosphorylation was induced in vitro by IKKβ	
B2		IQGAP1 phosphorylation was induced by GLK
